{"source": "paper PMC4083092", "binders": {"B1": {"name": "UUUUA (ssRNA)", "RNA": "UUUUA"}, "B2": {"name": "UUUUUAU (consensus CPE) (ssRNA)", "RNA": "UUUUUAU"}, "B3": {"name": "UUUUAU (consensus CPE) (ssRNA)", "RNA": "UUUUAU"}, "B4": {"name": "CUUUA (ssRNA)", "RNA": "CUUUA"}}, "key": {"[1]": {"molecular_target": "T1, CPEB1 RRM12 (tandem RRMs) (Homo sapiens, UniProt Q9BZB8 285-355+361-514, internal_change)", "experiment": "NMR titration and solution structure"}, "[2]": {"molecular_target": "CPEB1 ZZ domain (isolated) (Homo sapiens, UniProt Q9BZB8 503-566)", "experiment": "NMR titration"}, "[3]": {"molecular_target": "T2, CPEB4 RRM12 (tandem RRMs) (Homo sapiens, UniProt Q17RY0-3 54-256)", "T2 sequence": "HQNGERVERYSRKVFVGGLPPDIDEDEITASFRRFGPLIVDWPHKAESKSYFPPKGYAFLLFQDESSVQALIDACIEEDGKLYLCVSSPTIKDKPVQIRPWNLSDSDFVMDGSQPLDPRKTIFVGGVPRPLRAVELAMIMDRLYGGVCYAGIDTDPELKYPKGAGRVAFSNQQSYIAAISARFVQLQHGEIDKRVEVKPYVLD", "experiment": "NMR titration"}, "[4]": {"molecular_target": "T1, CPEB1 RRM12 (tandem RRMs)", "experiment": "NMR titration"}, "[5]": {"molecular_target": "T1, CPEB1 RRM12 (tandem RRMs)", "experiment": "NMR"}}, "data": [{"binder": "B1", "values": [{"measurement": "binding result", "setting": "[1]", "result": "binds"}]}, {"binder": "B2", "values": [{"measurement": "binding result", "setting": "[2]", "result": "no binding"}]}, {"binder": "B3", "values": [{"measurement": "binding result", "setting": "[3]", "result": "binds"}, {"measurement": "binding result", "setting": "[4]", "result": "binds"}]}, {"binder": "B4", "values": [{"measurement": "binding result", "setting": "[5]", "result": "binds"}]}]}
